One may read the Km as the substrate concentration at which the rate is half of its maximum. Broadly, the kcat is the maximal rate divided by the concentration of active sites.

We go through one protein from paper PMC12654650, “Characterization of a β-Galactosidase from Kosakonia oryzendophytica and Its Heterologous Expression in Bacillus subtilis for Galactooligosaccharides Production” (Molecules, 2025).

Substrate in this data set: O=[N+]([O-])c1ccccc1O[C@@H]1O[C@H](CO)[C@H](O)[C@H](O)[C@H]1O
Briefly: purified protein. Format: biochemical, Kosakonia oryzendophytica. The settings on record: pH 7.0, 100 mM HEPES, 50 °C, 5 min, ONPG 0.3-50 mM, fit called substrate inhibition curve (Figure S4).

B1: Koor β-gal (Kosakonia oryzendophytica) (protein)
chain: MSASALRTLISRRDWENPVITHWHRLPAHAPMRSWRDEQAARDNAPSSAHRLLNGEWYFRFFPAPEAVPERWITEEYDDAVAMPVPSNWQMQGFDTPIYTNVTYPIPVNPPFVPQQNPTGCYSLTFEMTAQALAQGQTRIVFDGVNSAFYLWCNGQWIGYSQDSRLPAEFDLSDVLHVGQNRLAVMVLRWCDGSYLEDQDMWRMSGIFRDVSLQHKPATHIADFHHTTELNAEFTHGQVKVDLRLAGEYSACQVAVALWHGEEKIAQAQQAPGSAIVDERGAWAERLSVSLPVSDPLLWSAETPHLYRLTLTLLDGLGNVLEVEACNVGFRKVEISNGLLKLNGKPLLIRGVNRHEHHPENGQAIDEATMRRDIELMKQHNFNAVRCSHYPNHPLWYSLCDEYGLYVVDEANIETHGMTPMSRLSDDPQWLPAMSERVTRMVLRDRNHPSIIIWSLGNESGHGASHDALYRWLKTTDPTRPVQYEGGGANTAATDIICPMYARVDEDQPFPAVPKWSIKKWIGLPDETRPLILCEYAHAMGNSFGGFAKYWQAFRETPRLQGGFVWDWVDQALTKTDTNGQSFWAYGGDFGDTPNDRQFCMNGLVFPDRTPHPALYEAQRAQQFFQFRLLNTTPLVIEVESEYLFRTTDNEYLRWAVVRDGLVLAQGEITLAIAPQGKQQIALTIPELESAPGEVWLNVDVYQKAATPWSDAEHHCAWDQWRLPSPLFIAPRKTVSSRPMLVVSEEEYVIHHRNQRWQFCRRSGDLIQWWRDEQPTLLTPLRDSFARAPLDNDIGISEVTRIDPNAWVERWKAAGMYDLRAELLACEVEEHAADIVVTTTHCWSGAGKTGFVSHKRWRIDGEGVLHGEVDVQVATDIPPPARIGLVCQLSEVQASVSWLGLGPHENYPDRKLAARQGRWTLPLAALHTPYIFPGENGLRCETRELHYGAHHLNGDFHFSLGRYSDKQLRETTHHHLLREEAGCWLHLDAFHMGVGGDDSWSPSVSPEFILRSERVRYAFCWRQD
notes: C-terminal 6xHis tag, pET-28a(+) NcoI/XhoI, E. coli BL21(DE3), Ni-NTA; synthetic gene
Turning to B1, the Km is on record as 6.0 ± 0.3 mM and the kcat was 732.7 ± 43.5 s⁻¹.
